Experimental data taken from patent publication US20260258084A1, “New Peptides as Selective IL-23 Receptor Antagonists” (Sanofi, priority 2022, published 2026).
Starred links: 1 amine or outer side, 2 acyl side, 3 side chain; linkers in the order of their positions; H or OH if unused. Positions of bridges follow the written chain, without caps; N, C: chain ends. Non-standard residues stand in square brackets, D forms with d. Residues, ends and D or L forms follow the SMILES beside them. No end group written: not given here. *: point of attachment. Yde = (2S)-2-amino-3-[4-[2-(dimethylamino)ethoxy]phenyl]propanoic acid, CN(C)CCOc1ccc(C[C@H](N[*:1])C(=O)[*:2])cc1; Phe(4-OMe) = COc1ccc(C[C@H](N[*:1])C(=O)[*:2])cc1; Trp(7-Me) = Cc1cccc2c(C[C@H](N)C(=O)O)c[nH]c12; αMeLys(Me2) = CN(C)CCCC[C@](C)(N)C(=O)O; 2Nal = N[C@@H](Cc1ccc2ccccc2c1)C(=O)O; AEF = NCCOc1ccc(C[C@H](N)C(=O)O)cc1; 3Pal = N[C@@H](Cc1cccnc1)C(=O)O; Dad = desamino-aspartamic acid; αMeL = CC(C)C[C@](C)(N)C(=O)O; Suc = O=C(CCC(=O)[*:2])[*:1]; Nmapt = not defined here; Thp = NC1(C(=O)O)CCOCC1; Me2NCH2CH2 = CN(C)CC*; Aib = CC(C)(N)C(=O)O; Ahx = NCCCCCC(=O)O; Ava = NCCCCC(=O)O; Sar = CNCC(=O)O

T1: IL-23 receptor on the surface of HEK-Blue IL-23 cells (UniProt Q5VWK5 24-629, limits assumed)
T1 sequence (looked up): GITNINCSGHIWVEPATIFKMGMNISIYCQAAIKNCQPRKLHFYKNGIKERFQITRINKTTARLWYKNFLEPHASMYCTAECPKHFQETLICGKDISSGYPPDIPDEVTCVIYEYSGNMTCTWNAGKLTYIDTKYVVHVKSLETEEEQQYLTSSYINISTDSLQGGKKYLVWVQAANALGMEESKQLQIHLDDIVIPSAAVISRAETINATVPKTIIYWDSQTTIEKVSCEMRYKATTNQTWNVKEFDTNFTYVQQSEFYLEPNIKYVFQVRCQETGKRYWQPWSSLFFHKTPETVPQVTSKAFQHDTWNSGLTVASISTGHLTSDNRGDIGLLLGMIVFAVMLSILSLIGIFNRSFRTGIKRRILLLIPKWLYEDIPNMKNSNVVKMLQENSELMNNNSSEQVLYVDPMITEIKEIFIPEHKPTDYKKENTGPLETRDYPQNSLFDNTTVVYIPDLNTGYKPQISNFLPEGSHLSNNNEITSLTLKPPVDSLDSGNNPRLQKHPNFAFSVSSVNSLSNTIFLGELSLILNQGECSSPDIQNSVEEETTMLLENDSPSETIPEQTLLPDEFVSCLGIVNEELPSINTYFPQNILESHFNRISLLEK


The molecules below were run against T1, IL-23 receptor on the surface of … (assay: cell-based or functional assay). Details: not given.

pSTAT3 (nM) | Molecule
27.9 nM | [Nmapt]CKWQC[AEF][2Nal][Aib]ENN-NH2 (lactam N-10; disulfide 2-6; not fully specified (residue 3); printed as Nmapt(§1)-C(§3)(@2)-K[aAc](@3)-W-Q-C(@2)-Yae-Nal-Aib-E(§1)-N—N—NH2; reading uncertain; also: K[aAc]: Cys2 bonded to epsilon-NH2 of acetylated Lys3, acetyl presumably on alpha-amine) [Compound of SEQ ID NO: 12]
32 nM | [Nmapt]CKWQC[AEF][2Nal][Thp]ENN-NH2 (lactam N-10; disulfide 2-6; not fully specified (residue 3); printed as Nmapt(§1)-C(§3)(@2)-K[aAc](@3)-W-Q-C(@2)-Yae-Nal-Thp-E(§1)-N—N—NH2; reading uncertain; also: K[aAc]: Cys2 bonded to epsilon-NH2 of acetylated Lys3, acetyl presumably on alpha-amine) [Compound of SEQ ID NO: 13]
18.7 nM | [Nmapt]CKWQC[AEF][2Nal][αMeL]ENN-NH2 (lactam N-10; disulfide 2-6; not fully specified (residue 3); printed as Nmapt(§1)-C(§3)(@2)-K[aAc](@3)-W-Q-C(@2)-Yae-Nal-Mle-E(§1)-N—N—NH2; reading uncertain; also: K[aAc]: Cys2 bonded to epsilon-NH2 of acetylated Lys3, acetyl presumably on alpha-amine) [Compound of SEQ ID NO: 14]
53.5 nM | [Dad]CNTWQC[Phe(4-OMe)][2Nal][Aib]KNN-NH2 (lactam (positions not given here); disulfide 2-7; not fully specified (bridges); printed as Dad(§1)-C(@2)-N-T-W-Q-C(@2)-Yme-Nal-Aib-K(§1)-N—N—NH2) [Compound of SEQ ID NO: 11]
18.5 nM | [Ava]CNTWQC[Phe(4-OMe)][2Nal][Aib]ENN-NH2 (lactam N-11; disulfide 2-7; SMILES COc1ccc(C[C@@H]2NC(=O)[C@@H]3CSSC[C@H](NC(=O)CCCCNC(=O)CC[C@@H](C(=O)N[C@@H](CC(N)=O)C(=O)N[C@@H](CC(N)=O)C(N)=O)NC(=O)C(C)(C)NC(=O)[C@H](Cc4ccc5ccccc5c4)NC2=O)C(=O)N[C@@H](CC(N)=O)C(=O)N[C@@H]([C@@H](C)O)C(=O)N[C@@H](Cc2c[nH]c4ccccc24)C(=O)N[C@@H](CCC(N)=O)C(=O)N3)cc1) [Compound of SEQ ID NO: 1]
25.8 nM | [Ava]CNTWQC[Yde][2Nal][αMeL]EN[dL]-NH2 (lactam N-11; disulfide 2-7; SMILES CC(C)C[C@@H](NC(=O)[C@H](CC(N)=O)NC(=O)[C@@H]1CCC(=O)NCCCCC(=O)N[C@H]2CSSC[C@H](NC(=O)[C@H](CCC(N)=O)NC(=O)[C@H](Cc3c[nH]c4ccccc34)NC(=O)[C@H]([C@@H](C)O)NC(=O)[C@H](CC(N)=O)NC2=O)C(=O)N[C@@H](Cc2ccc(OCCN(C)C)cc2)C(=O)N[C@@H](Cc2ccc3ccccc3c2)C(=O)N[C@@](C)(CC(C)C)C(=O)N1)C(N)=O) [Compound of SEQ ID NO: 10]
88.3 nM | [Nmapt]CKWQC[AEF][2Nal][Aib]EA[dL]-NH2 (lactam N-10; disulfide 2-6; not fully specified (residue 3); printed as Nmapt(§1)-C(§3)(@2)-K[aAc](@3)-W-Q-C(@2)-Yae-Nal-Aib-E(§1)-A-(D-Leu)-NH2; reading uncertain; also: K3 acetylated (K[aAc]), acetyl site not given here, ε-NH2 takes the Cys2 bond) [Compound of SEQ ID NO: 19]
54 nM | [Ahx]CNTWQC[Phe(4-OMe)][2Nal][Aib]ENN-NH2 (lactam N-11; disulfide 2-7; SMILES COc1ccc(C[C@@H]2NC(=O)[C@@H]3CSSC[C@H](NC(=O)CCCCCNC(=O)CC[C@@H](C(=O)N[C@@H](CC(N)=O)C(=O)N[C@@H](CC(N)=O)C(N)=O)NC(=O)C(C)(C)NC(=O)[C@H](Cc4ccc5ccccc5c4)NC2=O)C(=O)N[C@@H](CC(N)=O)C(=O)N[C@@H]([C@@H](C)O)C(=O)N[C@@H](Cc2c[nH]c4ccccc24)C(=O)N[C@@H](CCC(N)=O)C(=O)N3)cc1) [Compound of SEQ ID NO: 2]
62 nM | [Nmapt]CKWQC[AEF][2Nal][Thp]EAG-NH2 (lactam N-10; disulfide 2-6; not fully specified (residue 3); printed as Nmapt(§1)-C(§3)(@2)-K[aAc](@3)-W-Q-C(@2)-Yae-Nal-Thp-E(§1)-A-G-NH2; reading uncertain; also: K3 acetylated (K[aAc]), acetyl site not given here, ε-NH2 takes the Cys2 bond) [Compound of SEQ ID NO: 17]
32.1 nM | [Nmapt]CKWQC[AEF][2Nal][Thp]ENG-NH2 (lactam N-10; disulfide 2-6; not fully specified (residue 3); printed as Nmapt(§1)-C(§3)(@2)-K[aAc](@3)-W-Q-C(@2)-Yae-Nal-Thp-E(§1)-N-G-NH2; reading uncertain; also: K3 acetylated (K[aAc]), acetyl site not given here, ε-NH2 takes the Cys2 bond) [Compound of SEQ ID NO: 16]
29.2 nM | [Nmapt]CKWQC[AEF][2Nal][Aib]ENG-NH2 (lactam N-10; disulfide 2-6; not fully specified (residue 3); printed as Nmapt(§1)-C(§3)(@2)-K[aAc](@3)-W-Q-C(@2)-Yae-Nal-Aib-E(§1)-N-G-NH2; reading uncertain; also: K3 acetylated (K[aAc]), acetyl site not given here, ε-NH2 takes the Cys2 bond) [Compound of SEQ ID NO: 15]
69.5 nM | [Nmapt]CKWQC[AEF][2Nal][αMeL]EAG-NH2 (lactam N-10; disulfide 2-6; not fully specified (residue 3); printed as Nmapt(§1)-C(§3)(@2)-K[aAc](@3)-W-Q-C(@2)-Yae-Nal-Mle-E(§1)-A-G-NH2; reading uncertain; also: K3 acetylated (K[aAc]), acetyl site not given here, ε-NH2 takes the Cys2 bond) [Compound of SEQ ID NO: 18]

Each molecule was assayed against T2, human interleukin-23 receptor (recombinant human IL-23R-Fc chimera) (Homo sapiens, UniProt Q5VWK5) (assay: Human ELISA IL23/IL23R (assay for specific human IL23R antagonists)). Details: Table 10; read-out: Human ELISA IL23/IL23R IC50.
T2 construct: Fc (IgG Fc fusion)
Type: binding
Description: Antagonism of compounds for human interleukin-23 receptor antagonists, was determined by an ELISA assay.
A 384-well plate was coated with 50 μl/well of human IL23 at a final concentration of […] and incubated overnight at 4° C. The wells were washed 3 times with 80 μl wash buffer and blocked with 80 μl blocking buffer for 60 minutes at room temperature and washed again. 20 μl of serially diluted test peptides was added to each well and subsequently 20 μl of recombinant human IL-23R-Fc chimera at final concentration of 0.1 μg/ml. The plate was incubated for 60 minutes at room temperature. After the wells were washed, bound IL23R-Fc was detected with goat anti-hu-IgG1-HRP antibody. Signals were visualized with QuantaBlu Fluorogenic Peroxidase Substrate.

IC50 | Molecule
0.45 nM | Cc1cccc2c(C[C@@H]3NC(=O)[C@H]([C@@H](C)O)NC(=O)[C@H](CC(N)=O)NC(=O)[C@@H]4CSSC[C@H](NC(=O)[C@H](CCC(N)=O)NC3=O)C(=O)N[C@@H](Cc3ccc(OCCN(C)C)cc3)C(=O)N[C@@H](Cc3ccc5ccccc5c3)C(=O)N[C@@](C)(CCCCN(C)C)C(=O)N[C@H](C(=O)N[C@@H](CC(N)=O)C(=O)N[C@@H](Cc3cccnc3)C(=O)N(C)CC(N)=O)CCCCNC(=O)CCC(=O)N4)c[nH]c12 [compound 153] (CNT[Trp(7-Me)]QCY(Me2NCH2CH2)[2Nal][αMeLys(Me2)]KN[3Pal][Sar]-NH2; disulfide 1-6; linker N-10 via Suc)

The molecules below were run on IL-23 induced STAT3 signaling in HEK-Blue™ IL-23 cells (assay: IL-23 induced STAT3 signaling in HEK-Blue IL-23 cells (SEAP reporter)). Details: human IL23 0.25 ng/ml, read-out: pSTAT3.
Type: cell-based
Excerpt: HEK-Blue™ IL-23 cells (Invivogen) are designed for the detection of bioactive human (hIL-23) and murine IL-23 (mIL-23) by monitoring the activation of the STAT3 pathway. Binding of IL-23 to its receptor on the surface of HEK-Blue™ IL-23 cells triggers a signalling cascade leading to the activation of STAT3 and the subsequent production of secreted embryonic alkaline phosphatase (SEAP). This can be readily assessed using QUANTI-Blue™ Solution, a SEAP detection reagent.
HEK-Blue™ IL-23 cells were cultured as described by Invivogen.
On the first day of assay 10 μL of the HEK-Blue IL23 cell suspension (final concentration: 10,000 cells/well) and 10 μl of serially diluted peptides solutions were dispensed into a 384-well assay plate. After pre-incubation of the reaction mixtures at 37° C./5% CO2/95% humidity for 60 minutes, 10 μl of the human IL23 cytokine (final concentration: 0.25 ng/ml) was added to each well for the STAT3 signalling activation. The plate was incubated overnight at 37° C./5% CO2/95% humidity.
On the second day 20 μl per well of Quanti-Blue detection solution (prepared according to the manufacture instruction) was dispensed into a new 384-well plate and followed by the transfer of 5 μl supernatant of the overnight incubated cell/sample mixtures. After incubation of 45 min at room temperature signals were measured with PHERAstar (BMG) at OD 620-655 nm. Dose response data were fitted with XLfit.

Molecule | IC50
Cc1cccc2c(C[C@@H]3NC(=O)[C@H]([C@@H](C)O)NC(=O)[C@H](CC(N)=O)NC(=O)[C@@H]4CSSC[C@H](NC(=O)[C@H](CCC(N)=O)NC3=O)C(=O)N[C@@H](Cc3ccc(OCCN(C)C)cc3)C(=O)N[C@@H](Cc3ccc5ccccc5c3)C(=O)N[C@@](C)(CCCCN(C)C)C(=O)N[C@H](C(=O)N[C@@H](CC(N)=O)C(=O)N[C@@H](Cc3cccnc3)C(=O)N(C)CC(N)=O)CCCCNC(=O)CCC(=O)N4)c[nH]c12 [compound 153] (CNT[Trp(7-Me)]QCY(Me2NCH2CH2)[2Nal][αMeLys(Me2)]KN[3Pal][Sar]-NH2; disulfide 1-6; linker N-10 via Suc) | 0.06 nM
